Data published in patent US20190112367A1 (IMMUNOQURE, published 2019).

Experiments:
IL-32alpha (ImmunoTools) [1] = target: T1, IL-32alpha (ImmunoTools) (human, UniProt P24001-4 1-131, limits assumed); test: ELISA, antigen coated on plate
T1 construct: Bought from ImmunoTools; also called IL-32α
T1 sequence (looked up): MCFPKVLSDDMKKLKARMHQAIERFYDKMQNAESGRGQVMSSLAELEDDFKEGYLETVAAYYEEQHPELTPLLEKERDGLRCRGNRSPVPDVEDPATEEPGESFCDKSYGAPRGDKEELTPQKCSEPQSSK
Method: (§1) EC50 binding of exemplary anti-IL-32 antibodies of the present invention to IL-32γ (R&D) or IL-32α (ImmunoTools), was determined by ELISA. Serial dilutions of MABs (from 100,000 ng/ml down to 1.69 ng/ml) were incubated for 2 hours with antigen-coated plates (coating overnight at 1 μg/ml in PBS, followed by wash out and blocking with 2% BSA in PBS). The plates were subsequently washed and binding of MABs was detected with anti-human HRP-conjugated Fc-gamma-specific secondary antibody (Jackson ImmunoResearch, Europe Ltd., Cambridgeshire, UK). Concentrations of MAB resulting in half of maximal binding to respective antigens (EC50, ng/ml) were calculated using Prism 4 GraphPad software on sigmoidal dose-response curves (variable slope, 4 parameters) obtained by plotting the log of the concentration versus OD 450 nm measurements; for the results see FIG. 3 and Table 4 below.

IL-32alpha (ImmunoTools) [2] = target: T1, IL-32alpha (ImmunoTools); test: ELISA, antigen coated at 1 µg/ml, serial dilutions of MAB
Method: as §1

B1: anti-IL-32 antibody 26A6 (IgG1, lambda) (antibody, V domains shown)
VH: QVQLVESGGGVVQPGRSLRLSCVASGLTFRTYGMHWVRQAPGNGLEWVAIIWHDGNKKYFADSVKGRFTISRDNSKNSLYLQMNSLRVEDTAVYYCAREMNGIDVWGQGTTVTVSS
VL: SYELTQPPSVSVSPGQTARITCSGDALPETYVYWYQQKSGQAPVKLIYEDSERPSGIPERFSGSSSGTLATLTISGAHVEDEADYYCYSTDSSGIGVFGGGTKVTVLS
notes: IgG1, lambda; also called MAB 26A6
- binding result (IL-32alpha (ImmunoTools) [1]): no binding (tested: 100 ug/ml (highest concentration tested))

B2: anti-IL-32 antibody 2C2 (IgG3, lambda) (antibody, V domains shown)
VH: QLRVQESGPGLLKPAETLSLTCSVSSGSVSNSRYYWAWIRQSPGKGLEWIGSMYYRGRSYYNPSLKSRLTISIDTSKNQFSLKLTSLTAADTAVYYCAAAVYHDLDYWGQGTLVTVSS
VL: QSVLTQPPSVSAAPGQKVTISCSGSGSSIGNNYVSWYQQLPGAAPKLLIYDNTKRPSGIPDRFSGSKSGTSATLAITGLQPGDAADYYCGTWDSSFSVFWVFGGGTKLTVLS
notes: Human patient-derived antibody, recombinantly expressed; the chains are put together from these; also called MAB 2C2; exemplary anti-IL-32 2C2 antibody
- EC50 (IL-32alpha (ImmunoTools) [2]): > 30 µg/mL

B3: anti-IL-32 antibody 14B3 (IgG1, lambda) (antibody)
heavy: not shown
light: SYELTQPPSVSVSPGQTARITCSGDALPETYVYWYQQKSGQAPVKLIYEDSERPSGIPERFSGSSSGTLATLTISGAHVEDEADYYCYSTDSSGIGVFGGGTKLTVLSQPKAAPSVTLFPPSSEELQANKATLVCLISDFYPGAVTVAWKADSSPVKAGVETTTPSKQSNNKYAASSYLSLTPEQWKSHKSYSCQVTHEGSTVEKTVAPTECS
notes: also called MAB 14B3
- binding result (IL-32alpha (ImmunoTools) [1]): no binding (tested: 100 ug/ml (highest concentration tested))

B4: anti-IL-32 antibody 19A1 (IgG1, lambda) (antibody)
heavy: not shown
light: B3 light
notes: also called MAB 19A1
- binding result (IL-32alpha (ImmunoTools) [1]): no binding (tested: 100 ug/ml (highest concentration tested))
